Results from the DeepSol protein solubility set.

assay: soluble on expression in E. coli; label from the status in PepcDB or PDB records

Soluble on expression in E. coli, not soluble:
MGSDKIHHHHHHMGNYLVLQSDFGLSDGAVSAMYGVAYTVSDDIRVENLTHDIPPYDIWVASYRLYQTVKYWPKGTVFVSVVDPGVGSDRRSIACLTYSGHYIITPDNGSLSHIKHYEGIKKVIEIDEVKSRLPHSEESHTFHGRDVYAYNGARLAANKIAFERLGQAINVDSIEALEIREATKNEDSVTGSIDILDIRFGSLWTNIPLAFLKSLEIVHGNNLVVTIYHQDKKVYQNIIKFARSFADVNVGEPLVYVNSLVNIGVAVNQDSFSDLYHIGTGNDWTIHLSKAPSI
MGSDKIHHHHHHMGRLKTVKLVLLHTSFNLFYQFFYKVFGPKKGRITLATMRSGQLNDNLAALEQGLKTANVKPVTVFCYHYDRTLAGKVGFLLASIKALYVIARADVFVIDDYFFPLYAIHKHDDNQVVQLWHAIGSLKKFGLSLPNADQSVMKPHTNYDWVLINAKSDQPAYLDAMAINQDHVIATGSPMVDSLLNRQPQQPRLAARRILYSPTYRQGVQGKQQVMGYVNNMIAACQQLTGPWELYISLHPYLKLSAMTLPSNVHIFQDAERVKTLMPTIDLFITDYSSLSLTFSYFERPIILYTPDYDDYMQTSGFYVDYYQYLQAPHFSKAARVVDFINQEVDHMDLSYVHELKQKTFPHQDGHNTERVVQFVEKLAGGEH
MGSDKIHHHHHHMGSLNMPPLDFDAQKTPHIADLRSPQCRNCDIVREIAFCADLSPDEVKRLATVRCHAALPASFTVFREGDEVDHVYSISAGAVKLYKLMPDGRRQIIGFLFSGDLFGLGIDGGYCYTAETITPTHLCRFTHRKLDSLIAEIPRLERRMFTMAVKDLVSAQDQMLLLGRKTAREKVATFLLRLSRRSIQMGLPPSPVALPMSRADIADYLGLTIETVSRTFTQLKRDGIIGLPASGHCIVNDWEALRELAEGG
MGSDKIHHHHHHMGSPYIQARLSQIGDLMSFGIIQLDYEEVLAKHYRRWIQPGDTVIDVGAHLGLHLSRFIELAGPTGQVIGFEPLPFAFDILSTQHACPTLTLNNVALAHEPGHAEFTFAQGSPGESGLRKRLYISPETVTPTLIPVKVDTLDMHTENLRSVDYIKIDIEGGEIGCLEGATRTIDKFRPLISTEYGYPSYSVYGLTKDSLFNFASSKNYVLFDIFLNRIDTRDEWHIVCDSICWDYFLVPAEKLDVFTERVARRAF
MGSDKIHHHHHHMGSQAIVTGASGFIGSSVARMLAHKGWTVHGIGSSHLAMEAQEQIGIKHWVQQDLTLASLQGLADKTGDPDIIIHCAGGSSVQASISNPYEDFARTANATLNVLEFMRRYSPASALVYPSSAAVYGQTSSLPIAESSTPKPFSPYGHHKRIAEILCESYSLQWQLSVSIVRLFSVYGAGLKKQLLWDACQKAEQGAYSFFGSGAEIRDWLHVEDASNLLILAAEYASPECVIINGGSGVGTSINEILKLVGSHFALVSAPTFSGKAREGDPDSYVADITKAQALGFIPSFSLSDGIRQYVEWFKKECML
MGSDKIHHHHHHMHDYYQLVTVADLPQDNRQILDTLTAIGAGKLPNDLRLLNYYRSIPVNYGATVESVERGSVELTVNQQQAIVMQLEKQVFLKSGHFPKDVLAAVTYVNIDKSVAILANFAYAVIRSERRQFVRVEVKDKIEASFSGDGFTVAGLLNDISLGGVAISATIPTHPDAGIKGKVTLRLPGGPFEMPAQVLRVIPAYYTDLCIIEIQPDNRTEKGISQYIFQRQVEIIRELKDSIF
MGSDKIHHHHHHMHININMDWLSAKGLPILGLDISTTAIKLVELSDAGKGMLRVERYIIEPLPKDAVSDGNIANLDQVADTLRHAWKTLGSRVKNVALALPSSAVITKKILAPASLTGIELENQVEAEANQVIPFALDEVNLDFQVLGPSPGSPDDMQILLAAARKEKVEDRVAAVEAAGLKALIMDVESYATQAAYEQIAHLLPNGGAGQTVAIIDVGAQNMHINILNDNESVYLREHGFGGNQLNNEIARRYGMSGEEAENAKRKGSLPESYELEVLQPYSETLAMEIGRALQLFTTSTQYRKIDQILLAGGGAMIPGLDEVVAQRTGTPTLVVNPFANMAVASKVRPQALTADAPSLFVACGLAMRRFDSQ
MGSDKIHHHHHHMHKTRYNALSVAFQISPRGPLLIKAGGISANPTLPDMQFVRTYHPYYGYTVYIPGSSLKGVVRGFVEKALRTLDDHTSWQWACPTFPDEDESCAKKLGKEENSATIYKNSCGACRLFGHTRLKGRVAFTDLLPVDEVKTEIRYGVAISRLSHAVAHGPFEMEVAVAGTFEGYLILENFELWQLGLLVLAFQGMNSGLLQIGFGKNRGFGEVAVQVQEARLDEVTSGMEIGLWRGLADFVSDEEKTRYGLSTTFTLNGMPDPLRTEPLGLYTRRIYDPKRWDEVAQRVTDKLGTT
MGSDKIHHHHHHMHNHPAKRINSIKLCLDVKVALTPQTESRDMAASSKDAAFWSKISRKYAADPIRNMDGYLQTLDRTKSYLKPEDHVLEIGCGTGSTALLLAPHVAHITGTDLAPGMIEIAAEKRAKEGLENVTFKVAETLDHNPQDGAYDAILAHNLLHLLHDLDQSLQRIAALTKTGGVFISKTVCAPKAGGIKYALIRALAIPLMQRIGKAPYVNFISVPDLERRIERAGFEICEVISQPGLMQSHYVVARKL
MGSDKIHHHHHHMHTMHIPSGDVLIPKPKLITEETDPLHIIKTRQKTHGRPVTIAGPMVRYSKLPFRQLCREYNVDIVYSPMILAREYVRNEHARISDLSTNNEDTPLIVQVGVNNVADLLKFVEMVAPYCDGIGINCGCPIKEQIREGIGCALIYNSDLLCSMVHAVKDKYGDKLRIETKIRIHEALDETVELCRKLCDAGVDWITIHGRTRRTRSSQPANLDAIKYIIENISDKNVPVIANGDCFKLSDLERITKYTGAHGVMAVRGLLSNPALFAGYTTCPWGCIEKFCYWALEFGGLPFQLAQHHLYCMLENMELKKSLLKKMMNLKNYISLIDWFNKTFEFKRYGEDGFGMGVEIPYKANSCVQRSASVVERQE
MGSDKIHHHHHHMIDKLEFFLALARERHFGRAAEECGVTQPTLSAAIRQLEEQLGVILVNRGSRFQGLTPEGQRVLEWARRIVSDSRTMREEMRAARKGLSGHMRLAAVPTTLSMVPLITAPFQEKHPDVTFSVLSTTSLQILALLENLEIDAGLTYLENEPLGRVTSVPLQIEQYHLVTAAGTALSDRESVTWKEVSDIRLCLLTADMQNRRIINQHFAEAGAVPKPTLESNSMIVLFSHVRTGRWASIMPYNVAKSFGFHEDIRMIPIVDPDVRHTVGLVATYREPFTPLVSALLHEARILGERNQVQ
MGSDKIHHHHHHMIDSMTHRKLSNTAQRPSPTRPRHGANATWRMLSVSALMLAMASTATWASDVKSQQTQAADIARNMANNTDTCYVEGVSDRLNCGFVTVPENPNKPDGKQIQVHYVVLPAVKNVNHEEALLAIAGGPGQSAIDNAAGFDAMLSKVRQQRDILLIDQRGTGRSNLLTCDEGAQSPLSFDDDNADTLAETQKCLAKIDADVTQYGSLNAIKDFEAVRQHLGYKKLHIYGISYGTRMAQLYMRLYPAHLATVTLDGIVPMQQSVLEIGASIDRGFDLLFKDCQETTACHAQFPELKAEFDQVAASLAKAPVMENVYDPVTGEKTMLTMTRGKFYGSIRMALYQANVRALVPHAIHQAAKHNFQPILGLYSLTTDNAGMAMGMHASVVCGEDMPRITPAMREQAQHSFMGKTMLEGLEATCEVWKVPAVDDSFSEPISSDIPTLLLSGEIDPATPPSWGELAMEKLTNAKHFVAPYATHGVAYQSCANNLIADLVRSGSVKDLDGECLKKDVRRSFYLNASSVEPLDATSTKTTDDNASTGAKE
MGSDKIHHHHHHMIDWLYSYPPLYPGILLKRYKRFFADVQLASGEVVTAHCPNTGPMTGVSTLGSVVQLSKSANPKRKLAYTLELIQVHDNEPTWVGVNTALPNQIVKLALAKYLFPELGSYNHIKSEVVYGVDKKSRVDFFLTGSDTERPIYLEVKNTTWAKGTLALFPDTETTRGQKHLRELMTLLPQTRSVMLYFINRGDCTEFAPGDSTDPIYGKLLREAIALGLEVLPCRFDVTPEGIRYLGLAKLVI
MGSDKIHHHHHHMIETRQKQERVILIGVALPNSENFDLSMEELASLAKTAGAEVVQTHTQKRDHYDSKSFIGSGKLLEIKQIIATDAIDSVIVNNRLTPRQNAYLEAELGVKVIDRMQLILDIFAMRARSHEGKLQVHLAQLKYMLPRLVGQGIMLSRQAGGIGSRGPGESQLELNRRSIRKQIADIERQLKNAEKNRETNREKRLDSQIFKIGLIGYTNAGKSTIMNVLTDNKQYEADELFATLDATTKQIYLTDHFQATLTDTVGFIQDLPTELVAAFKSTLEESRQVDLLLHVIDASDPNHEEHEKVVHDLLKELGMTAIPRLLVYNKMDKAENFIASQFPHISLSAKSDEAAALLRQSILEKIKTLFVPFTITWRQEKSYKLYELDKIALLTSYDVKQELQEIKGYISEKNKWRLEEFYRELS
MGSDKIHHHHHHMIEVQKQIDLDLELDIYKKLLEDNILFFDIETTGFDKEKEKVVLISGGWFLQDKKFVIKQYFAESLDEEVQVLKAFKEDVTKFNSWCSYNGKAFDEPFIKKRMNINNIEFTPPREHIDLYRIIRPYYKQLGMERCNLKSVEKYLGIHRADKIDGGISVELYYNFLDTKDERLRYVIMLHNYEDVLNLPSIFKLTYDIEKNDTLKREGGITKKQLDYLRFLMKKNNIQVTDDLKKISKKSASRIIDSILRGNIDIDKFNAIIKDSY
MGSDKIHHHHHHMIFINSRFLTQDVSGVQRYAEQMCRALQRLRNDLIFVAPRNIRLHDCAKALDVQHIGHATGHLWEQVDLPLHLKRKGNPLLVSISNTGPMFYANQIATHHDINYVRYPQSYTRLFRLAYRTITPILLSRARTLITGSSFSRGEIASFYGYAEDKVLVLPAAVSDDFTPRAVHRDQPDYLLAVSSPAAHKNFNRMIQAFLSLRGHADLQLHIVGAASSLFADPNLQRLACRDPRIRFLGRLSDAELIEQYQGASAFVFPSLYEGFGIPPLEAQACGCPVLAANAASIPEVLQASALYFDPLDVSHMAAAMHRVLSDAPLRQALRRQGLKNVQRFSWEISAQRLSQRIDALLEPAVQGKHHVAPESSPGKP
MGSDKIHHHHHHMIFSCPIDRSDVNEKLECEKGHKFGIIGGQIYDFLLKDVEVDKLLSRVIPIYESIWAPLGLLITSGKTYTSFLREIGEFIDGDLIIDVGTGTGKIFDFLNCKTCIGIDVSLRFLMYMKRKRTRVIAVRADANNLPLKSGIADGISSTLVLHMLSNPSFAIREMSRVLKSNGKCSIAVLANVNSIIGKTLSRWWKVNLRHYDYYINLLQENSLKVVERKELGPWEVINCIKIS
MGSDKIHHHHHHMIFTMKATKILICILCCTWICSCSLLEVDPVSTITSQSFWKTPGDAKAYLTGIYNKVRSLNNTSYYGEDRGDAFKAGEIGPTSVAWAHTLLESNAPSYRSAYNIIHHANLLFNKIESLKFTNETEKNRIKAECHFLRAYTYFLIVRIWGDAPIITDPVLSDNVELKPRSPKEDVMKLILEDIEQSVLLFPEDGYINKNLASKPAAYALKADVLMWKAKVLNGGNADLEEAIKAIDQVGGSGVSLLPDYAKVFANDNKKNNEIIFSFYFERYETGNLSIATNTTSRTDNLSMAVNLADAATSPNQSRHVYAPSDKARELYLKYPGDRRYKVAMIDLVDKDGNLILTQTNKFRGKAYSDDRYFDDDLIAYRWGDLLLLRAEANAALNKISESLVDLNEVRDRAGLEPYDGPKDKIAVEKEICDERLRELFIEQKRWFDLVRFHCGGTIDIYKEVPNLNDKPGYPLYFPINYNDMVLNDKLVQTDGYESNVER
